Data on four molecules can be found in patent publication US8512991B2, “Beta 1,4-galactosyltransferases with altered donor and acceptor specificities, compositions and methods of use” (The United States of America, as represented by the …, priority 2007, dated 2013).

Numbering of substitutions follows the chain as printed. In names and notes the source's numbering stands. Like-named read-outs stand apart in the source and are kept apart here.

Assay [1] is described as follows: Gal-T and GalNAc-T enzyme assay, specific activities of the catalytic domain (FIG. 2). The format is biochemical. The note with it: in the presence of magnesium; saturating substrates, 500 μM UDP-galactose or UDP-GalNAc, β-benzyl-GlcNAc 25 mM. The protocol: FIG. 2 is a graph showing specific activities of the catalytic domain of the human beta 4Gal-T1-M340H-Y285L. Reactions were performed under saturating conditions of all substrates. In these reactions the concentrations for the donors UDP-galactose or UDP-GalNAc was 500 μM and the acceptor β-benzyl-GlcNAc was at 25 mM.
The reactions were performed under saturating conditions of all substrates. […] This is in contrast to the wild type, which is not active (not able to transfer sugar) in the presence of magnesium.
Gal-T and GalNAc T enzyme assays are easily performed according to methods described in the art, for example US Published Application 20060084162. Protein concentrations are measured using the Bio-Rad protein assay kit, based on the method of Bradford and further verified on SDS gel. An in vitro assay procedure for the Gal-T1 has been reported previously (Ramakrishnan et al., J. Biol. Chem., 270, […] (2001)). The activities were measured using UDP-Gal or UDP-GalNAc as sugar nucleotide donors, and GlcNAc and Glc as the acceptor sugars. […] The column was washed successfully with 300, 400, and 500 µl of water, and the column flow-through was diluted with Biosafe scintillation fluid; radioactivity was measured with a Beckman counter. […]

Assay [2] can be described thus: Transfer of GalNAc or 2-keto-galactose to heptasaccharide tetrapeptide, MALDI mass spectra (FIG. 1). The format is biochemical. As to the method: Major peaks are annotated with the carbohydrate structure shown in the symbols for monosaccharides, according to the nomenclature adopted by the consortium for functional glycomics, (on the world wide web at functionalglycomics.org/static/consortium/). GlcNAc (squares), mannose (spheres).
The experiments shown in FIG. 1 were performed with the double mutant, b4Gal-T1_M340H_Y285L, which was constructed from the single mutants, b4Gal-T1_M340H and b4Gal-T1_Y285L. The b4Gal-T1-M340H single mutant requires Mg2+ for the transfer reaction, while the b4Gal-T1 Y285L single mutant requires Mn2+ for the transfer reaction. In FIGS. 1, (A), (B) and (C) show the MALDI mass spectra of glycans after the transfer of GalNAc (shown in B) or 2-keto-galactose (shown in C) to the sugar acceptor, heptasaccharide tetrapeptide (A), Arg-[GlcNAcβ1,2-Manα-1,6-(GlcNAcβ1,2-Manα1,3)-Manβ1,4-GlcNAcβ1,4-GlcNAcβ]-Asn-Glu-Gly, by the double mutant enzyme, b4Gal-T1M340H_Y285L. In FIG. 1, major peaks are annotated with the carbohydrate structure shown in the symbols for monosaccharides, according to the nomenclature adopted by the consortium for functional glycomics (publicly available on the world wide web at functional glycomics.org/static/consortium/).

For assay [3] the following is noted: Ramakrishnan et al. 2002, 2004, cited from earlier work.

B1: b4Gal-T1-M340H-Y285L: double mutant human beta 1,4-galactosyltransferase I, Tyr285Leu and Met340His, transfers GalNAc or modified galactose with magnesium (protein, UniProt P15291 1-398, looked up, variant M340H Y285L)
chain: MRLREPLLSGSAAMPGASLQRACRLLVAVCALHLGVTLVYYLAGRDLSRLPQLVGVSTPLQGGSNSAAAIGQSSGELRTGGARPPPPLGASSQPRPGGDSSPVVDSGPGPASNLTSVPVPHTTALSLPACPEESPLLVGPMLIEFNMPVDLELVAKQNPNVKMGGRYAPRDCVSPHKVAIIIPFRNRQEHLKYWLYYLHPVLQRQQLDYGIYVINQAGDTIFNRAKLLNVGFQEALKDYDYTCFVFSDVDLIPMNDHNAYRCFSQPRHISVAMDKFGFSLPYVQLFGGVSALSKQQFLTINGFPNNYWGWGGEDDDIFNRLVFRGMSISRPNAVVGRCRHIRHSRDKKNEPNPQRFDRIAHTKETMLSDGLNSLTYQVLDVQRYPLYTQITVDIGTPS
For the molecule B1, the “activity (able to transfer sugar) of the catalytic domain” value in assay [1] is on record as “is active”. In assay [2] (in the presence of Mg2+, acceptor heptasaccharide tetrapeptide), the “transfer of GalNAc or a modified sugar (2-keto-galactose) to the sugar acceptor” value is reported as “transfer of GalNAc or a modified sugar”.

B2: b4Gal-T1 Y285L: single mutant human beta4Gal-T1, Tyr285 to Leu, from which the double mutant was constructed (protein, UniProt P15291 1-398, looked up, variant Y285L)
chain: B1 chain with H340M
Consider B2, for which the “metal ion required for the transfer reaction (GalNAc or a modified sugar)” value (from here on “metal ion required”) in assay [2] is on record as “requires Mn2+”.

B3: b4Gal-T1-M340H: single mutant human beta4Gal-T1, Met340 to His, from which the double mutant was constructed (protein, UniProt P15291 1-398, looked up, variant M340H)
chain: B1 chain with L285Y
For B3, the “metal ion required” value in assay [2] is listed as “requires Mg2+”.

B4: b4Gal-T1Y289L: single mutant beta4Gal-T1, Tyr289 to Leu (bovine numbering), enlarged binding pocket with GalNAc-T activity (protein, UniProt P08037 1-402, looked up, variant Y289L)
chain: MKFREPLLGGSAAMPGASLQRACRLLVAVCALHLGVTLVYYLAGRDLRRLPQLVGVHPPLQGSSHGAAAIGQPSGELRLRGVAPPPPLQNSSKPRSRAPSNLDAYSHPGPGPGPGSNLTSAPVPSTTTRSLTACPEESPLLVGPMLIEFNIPVDLKLVEQQNPKVKLGGRYTPMDCISPHKVAIIIPFRNRQEHLKYWLYYLHPILQRQQLDYGIYVINQAGESMFNRAKLLNVGFKEALKDYDYNCFVFSDVDLIPMNDHNTYRCFSQPRHISVAMDKFGFSLPYVQLFGGVSALSKQQFLSINGFPNNYWGWGGEDDDIYNRLAFRGMSVSRPNAVIGKCRMIRHSRDKKNEPNPQRFDRIAHTKETMLSDGLNSLTYMVLEVQRYPLYTKITVDIGTPS
As to B4, in assay [2], the “metal ion required” value is on record as “require the presence of Mn2+”. In addition, the “beta 4GalNAc-T activity compared with beta 4Gal-T activity” value is “exhibits both beta 4Gal-T and beta 4GalNAc-T activities” in assay [3] (listed as beta 4Gal-T1-Y289L); “as efficient as its beta-1,4-galactosyltransferase (beta 4Gal-T) activity” in assay [3] (listed as beta4Gal-T1-Y289L).
